# Experimental data reported in the RNAGym collection of RNA variant scans (doi:10.7554/elife.80360).
# B1: Hairpin Ribozyme (parent)
# chain: GUCCUCUUUCACGUGCGCGUGAAAGAGAGAAGUGAACCAGAGAAACACACGUUGUGGUAUAUUACCUGGUA
# Variants of: B1
# Experiment: self-cleavage, relative activity (ratio to wild type); higher = more cleavage; co-transcriptional
row,Variant,self-cleavage
1,C12A U33G,0.175
2,C12G C46G,0.17
3,C12G C46A,0.191
4,C12U G40U,0.191
5,C12G G27U,0.261
6,C12G G27A,0.29
7,C12G A41G,0.573
8,C12A U70C,0.722
9,C12A U70G,0.673
10,C12U A41G,0.676
11,A11U A28U,0.494
12,A11U C16U,1.02
13,C12U G27C,0.15
14,C12U U55A,0.191
15,C12A A47C,0.329
16,C12A C65A,0.787
17,C12A U53C,0.939
18,C12U G13C,0.791
19,C12U G13U,0.828
20,A11G C65G,0.31
21,C12G,0.827
22,C12U,0.887
23,C12A,0.805
24,C12U A30U,0.136

row,Variant,self-cleavage
1,C12U A30C,0.193
2,C12G G34C,1.15
3,A11U A47U,0.266
4,C12U G56C,0.137
5,C12U G56U,0.193
6,G13A A47U,0.172
7,C12A C37A,0.27
8,C12A C37G,0.259
9,C12G G32U,0.179
10,C12U G54U,0.58
11,A11U A31U,0.0898
12,C12U C48U,0.126
13,A11U U58G,0.65
14,A11U U58A,0.523
15,A11G A64G,0.507
16,A11G A64C,0.114
17,A11G A64U,0.111
18,A11G G29C,0.177
19,C12U G68C,0.191
20,C12G C16G,0.806
21,C12G C16A,0.84
22,A11G A35G,0.764
23,A11U G25C,0.205
24,C12A A41G,0.736

row,Variant,self-cleavage
1,A11G G15C,0.859
2,C12A G57A,0.255
3,C12A G57U,0.172
4,C12G G40A,0.266
5,C12U C46U,0.174
6,C12G U60C,1.04
7,A11G A30G,0.269
8,A11G A30C,0.146
9,A11G U53C,1.02
10,A11G U52G,0.681
11,C12U U70A,0.746
12,C12U U70G,0.659
13,A11G G17A,1.01
14,G13A A71C,1.36
15,G13A A71G,0.912
16,C12U C37G,0.27
17,G13A A39G,0.279
18,C12G A45C,0.0684
19,A11G C16A,0.825
20,A11G C16U,0.902
21,C12A G19U,0.995
22,C12A G19A,0.876
23,C12U G34U,1.18
24,G13A C37A,0.373

row,Variant,self-cleavage
1,A11U G15A,0.849
2,A11U G15C,0.85
3,A11U G56C,0.087
4,C12G U20C,1.01
5,A11U G17C,0.566
6,A11G C38G,0.188
7,A11G C38U,0.432
8,A11G C38A,0.213
9,A11G A61C,0.14
10,A11C U53C,0.681
11,C12G G51C,0.753
12,C12G G51A,0.965
13,C12G G51U,0.663
14,A11C G68U,0.307
15,C12G G17U,0.627
16,C12A C18A,0.812
17,A11U C66G,0.0569
18,C12U A36U,0.584
19,C12U A36G,1.17
20,C12U G29A,0.164
21,A11U A39G,0.342
22,A11U C38U,0.47
23,A11G U55C,0.105
24,C12U G32A,0.134

row,Variant,self-cleavage
1,G13A A24U,0.627
2,A11G U33A,0.0249
3,A11U A41C,1.01
4,A11U A41U,1
5,C12U A23C,0.93
6,C12A A43G,0.116
7,C12A A43C,0.257
8,C12U U63G,0.162
9,A11G G21C,0.618
10,A11G G13C,0.567
11,A11G G13U,0.662
12,A11G G27A,0.353
13,A11G G27U,0.248
14,A11U U33A,0.0768
15,A11C U14A,0.533
16,A11G A43G,0.128
17,A11G A43C,0.0944
18,A11G A43U,0.199
19,G13A A64C,0.178
20,G13A A64U,0.258
21,C12A C16U,0.977
22,C12A C16G,0.671
23,C12U A24U,0.802
24,G13A A45G,0.161

row,Variant,self-cleavage
1,A11U A22C,0.363
2,A11U A22U,0.501
3,C12G A22C,0.518
4,C12G A30G,0.247
5,C12G A30U,0.147
6,C12G A30C,0.0578
7,A11C U52A,0.762
8,C12A A24U,0.584
9,C12A C46G,0.161
10,A11G A36C,0.508
11,C12G G56A,0.14
12,C12G G56U,0.124
13,C12G U58A,0.734
14,C12U A49U,0.159
15,C12U A49C,0.169
16,A11G G25A,0.43
17,C12U U67C,0.237
18,A11U A23U,0.728
19,A11U C46A,0.16
20,A11U C46G,0.0538
21,A11G G56A,0.229
22,A11G G56C,0.128
23,C12U A39C,0.407
24,C12U A39U,0.45

row,Variant,self-cleavage
1,C12U U52C,1.1
2,C12U U52A,0.92
3,C12U U52G,0.875
4,C12G G15A,0.881
5,A11G C66G,0.173
6,C12G G21C,0.47
7,A11U G54C,0.333
8,C12G G68C,0.144
9,C12G G68A,0.233
10,G13A A30G,0.104
11,C12A U55C,0.208
12,G13A A49G,0.5
13,G13A A49U,0.18
14,C12U A31C,0.204
15,A11U G32A,0.165
16,A11U G27A,0.406
17,A11U A71G,0.977
18,C12G A24C,0.613
19,C12G A24G,0.778
20,A11G A39U,0.495
21,C12G A49U,0.12
22,C12U A35C,0.975
23,C12U A35G,0.938
